From US20040166543
Numbering of substitutions follows the chain as printed.

Experiments:
[1] = tested on: T1, MUC1/CD (purified hexahistidine tagged MUC1 cytoplasmic domain), unphosphorylated
T1 sequence: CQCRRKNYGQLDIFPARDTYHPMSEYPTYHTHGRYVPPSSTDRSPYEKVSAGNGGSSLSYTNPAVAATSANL

MUC1/CD(Y46F) = tested on: T2, MUC1/CD(Y46F)
T2 sequence: T1 sequence with Y46F

MUC1/CD(S44A) = tested on: T3, MUC1/CD(S44A)
T3 sequence: T1 sequence with S44A

MUC1/CD (S40A/S44A) = tested on: T4, MUC1/CD (S40A/S44A)
T4 sequence: T1 sequence with S40A, S44A

MUC1/CD(T41A) = tested on: T5, MUC1/CD(T41A)
T5 sequence: T1 sequence with T41A

MUC1/CD(S40A) = tested on: T6, MUC1/CD(S40A)
T6 sequence: T1 sequence with S40A

Substance: purified c-Src polypeptide (Oncogene Research Products)
- phosphorylation of MUC1/CD ([γ-32P]ATP, SDS-PAGE, autoradiography) [1]: demonstrated c-Src-mediated phosphorylation of MUC1/CD
- phosphorylation of MUC1/CD(Y46F) ([γ-32P]ATP, autoradiography) (MUC1/CD(Y46F)): Incubation of MUC1/CD(Y46F) with c-Src demonstrated a decrease in phosphorylation as compared to that found with wild-type MUC1/CD

Substance: purified recombinant PKCδ (PanVera / Calbiochem-Novabiochem)
- phosphorylation ([γ-32P]ATP, autoradiography) (MUC1/CD(S44A)): phosphorylation of MUC1 by PKCδ was unaffected by S to A mutations of either or both of the flanking serines
- phosphorylation ([γ-32P]ATP, autoradiography) (MUC1/CD (S40A/S44A)): phosphorylation of MUC1 by PKCδ was unaffected by S to A mutations of either or both of the flanking serines
- phosphorylation ([γ-32P]ATP, autoradiography) (MUC1/CD(T41A)): PKCδ-mediated phosphorylation of MUC1/CD(T41A) was attenuated compared to that obtained with wild-type MUC1/CD
- phosphorylation of MUC1/CD ([γ-32P]ATP, SDS-PAGE, autoradiography) [1]: demonstrated phosphorylation of MUC1 CD
- phosphorylation ([γ-32P]ATP, autoradiography) (MUC1/CD(S40A)): phosphorylation of MUC1 by PKCδ was unaffected by S to A mutations of either or both of the flanking serines
